B1: glmS ribozyme (parent)
chain: AUAAAAGCGCCAGAACUACAGAAAUGUAGUUGACGAGGAGGAGGUUUAUCGAAUUUUCGGCGGAUGCCUCCAAA

The record followed here is the supplement of paper PMC7125110.

± gives the standard error. This sample holds only a part of the variants without activity. Some results are limits rather than exact numbers.

In the first data set the parent is B1. Put plainly: self-cleavage kobs at 2500 uM GlcN6P; higher = faster cleavage; RNA array. The note with it: with glucosamine-6-phosphate. The essentials:
(§1)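 Using a hybridised Cy3 probe at 37 °C, barcoded ribozyme variants transcribed in situ by E. coli RNA polymerase on sequenced MiSeq chips were monitored across tiles imaged over ~14 h. The flow contained glucosamine-6-phosphate from 40 μM to 10 mM in HEPES/KCl/Mg(OAc)2 buffer. Signals were normalised to baseline and to non-cleaving reference variants before per-tile medians were fit to one- or two-exponential decays to yield kobs. Weighted Michaelis–Menten fits across concentrations gave kcat and KM.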
In the case of AUAAAAGCGCCAGAUCUACAGAAAUGUAGUUGACGAGGAGGAGGUUUAUCGUAUUUUCGGCGGAUGGCUCCAAA, the “self-cleavage kobs at 2500 uM GlcN6P” value was found to be 0.000122 ± 3.6e-05 s⁻¹.

Consider AUAAAAGCGCCAGCACUACAGAAAUGUAGUUGACGAGGAGGAUGUUUAUCGAAUUUUCGGAGGAUGCCUCCAAA, for which the “self-cleavage kobs at 2500 uM GlcN6P” value was below 1e-05 s⁻¹.

On to AUAAAAGCGCCAGAACUACAGAAAUGUAGGUGACGAGGAUGAGGUUUAUCGAAUUUGCGGCGGAUGCCUCCAAA, for which the “self-cleavage kobs at 2500 uM GlcN6P” value is below 1e-05 s⁻¹. On the same count and under the same terms, in the case of AUAAAAGCGCCAGAACUACAGAAAUGUAGUUUACUAGGAGGAGGUUUAUCGAGUUUUAGGCGGAUGCCUCCAAA it was below 1e-05 s⁻¹.

On to AUAAAAGCGCCAGAACUACAGAAAUGUAGUCGACGUGGAGGAGGUUCAUCGAAUUUUCGGCGGAUGCCUCCAAA, for which the “self-cleavage kobs at 2500 uM GlcN6P” value was below 1e-05 s⁻¹. In the case of AUAAAAGCGCCAGAACUACAGAAAUGUAGUUGACGAAGAGGAGGAUUAUCGUAUUUUCGACGGAUGCCUCCAAA, the “self-cleavage kobs at 2500 uM GlcN6P” value is below 1e-05 s⁻¹. Same read-out and setting: the figure for AUAAAAGCGCUAGAACUACAGAAAUGUAGUUGACGAGGGGGGGGUUUAUCGAAUUUUCGGCGGAUGCCUCCAAA is 0.00125 ± 0.00043 s⁻¹; for AUAAAAGCGCCAUAACUACAGAAAUGUAGUUGACGAUGAGGAGGUUUAUCGAAUGUUCGGCGGAUUCCUCCAAA it is below 1e-05 s⁻¹.

Regarding AUAAAAGCGCCAGGACUACAGAAAUGUAGUUGACGAGGAGGAGGUUUAUCGAAUUUUCGGCGCUUGCCUCCAAA, the “self-cleavage kobs at 2500 uM GlcN6P” value was below 1e-05 s⁻¹. Still for that read-out and setting: the figure for AUAAAAGCGCUAUAACUACAGAAAUGUAGCUGACGAGGAGGAGAUUUAUCGAAUUUUCGGCGGAUGCCUCCAAA is below 1e-05 s⁻¹; for AUAAAAGCGCCAGAACUACAGAAAUGUAGUUGACGAGGAUGAGGUUUAUCGAAGUUUCGGCGGAUGCCUGAAAA it is 6.39e-05 ± 1.8e-05 s⁻¹.

For the variant AUAAAAGCGCCAUAACUACAGAAAUGUAGUUGACGAGGAGGAGGUUUAUCGAAUGUUCGGCGGAUGACUCCAAA, the “self-cleavage kobs at 2500 uM GlcN6P” value came to 8.05e-05 ± 1.9e-05 s⁻¹. Same read-out and setting: the figure for AUAAAAGCGCCAGAACUACAGAAAUGUAUUUCACGAGGAGGCGGUUUAUCGAAUUUGCGGCGGAUGCCUCCAAA is below 1e-05 s⁻¹; for AUAAAAGCGCCAGAACUACAGAAAUGUAGUUGACGAGGAGGAGGUUUGUCGAAUAUUCGGCGGAUGCCUACAAA it is 8.47e-05 ± 2.9e-05 s⁻¹. The same measure, in the same setting: the figure for AUAAAAGUGCCAGAAUUACAGAAAUGUAGUUGACGAGGAGGAGGUUUAUCGAAUUUUCGACGGAUGACUCCAAA is below 1e-05 s⁻¹; for AUAAAAGCGCCAGAGCUACAGAAAUGUAGUUGACGAGGAGGAGGUUUAUCGAAUUUUCCUCGGAUGCCUCCAAA it is below 1e-05 s⁻¹; for AUAAAAGUGCCAGACCUACAGAAAUGUAGUUGACGAGGAGGAGGUUUAUCGAAUUUUCGGCGGAUGCCUCGAAA it is below 1e-05 s⁻¹. Same read-out and setting: the figure for AUAAAAGCGCCAGAACUACAGAAAUGUAGUUGAGGAGGAGGACGUGUAUCGAAUUUUCGGCGGAUGCCGCCAAA is below 1e-05 s⁻¹; for AUAAAAGUGCCAGAACUACAGAAAUGUAGUUGACGAUGAGGAGGUUUAUCGAAUUUUCGGCGGAUGCCUCCAAA it is below 1e-05 s⁻¹. In the case of AUAAAAGCGCCAGAACUACAGAAAUGUAGUUGCCGAGGAGGAGGUUUAUCGAGUGUUCGGCGGAUGCCUCCAAA, the “self-cleavage kobs at 2500 uM GlcN6P” value worked out at 0.000103 ± 2.8e-05 s⁻¹. Regarding AUAAAAGGGCCAGAACUACAGAAAUGUAUUUGACGAGGAGGAGGUUUAUCGAAUUUUCGGCGGAUGCCGCCAAA, the “self-cleavage kobs at 2500 uM GlcN6P” value was below 1e-05 s⁻¹. Same read-out and setting: in the case of AUAAAAUCGCGAGAAGUACAGAAAUGUAGUUAACGAGGAGGAGGUUUAUCGAUUUUUCGGCGGAUGCCUCCAAA it was below 1e-05 s⁻¹; in that of AUAAAAGCGCCAGAACUACAGAAAUGUAGUUGACGAGGAGGGGGUUUAUCGAAUUUUCGGCGGAAUCCUCCAAA, 7.25e-05 ± 2.4e-05 s⁻¹. The same measure, in the same setting: in the case of AUAAAAGCGCUAGAAGUACAGAAAUGUAGUUAACGAGGAGGUGGUUUAUCGAAUUUUCGGCGGAUGCCUUCAAA it was below 1e-05 s⁻¹; in that of AUAAAAGCGCCAGAACUACAGAAAUGUAGUUGACGAGGUGGAGGUUUAUCGAAUUUUCGGCGGCUGCCUGCAAA, below 1e-05 s⁻¹; in that of AUAAAAGCGCCACAACUACAGAAAUGUAGUUGACGAGGAGGAGGUUUAUCGAAUUUUCGGCCGCUGCCUCCAAA, below 1e-05 s⁻¹. As for AUAAAAGCGCUAGAACUACAGAAAUGUAGCUGACGAGGGGGGGGUUUAUCGAAUUUUCGGCGGAUGCCUCCAAA, the “self-cleavage kobs at 2500 uM GlcN6P” value was 0.000103 ± 3.7e-05 s⁻¹. Same read-out and setting: the figure for AUAAAAGCGCCAGAACUACAGAAAUGUAGUUUACGAGGAGGAGGUUUAUCGAAUAUUCGGCGGAUGCCUUCAAA is 0.000404 ± 8e-05 s⁻¹. Same read-out and setting: in the case of AUAAAAGCGCCAGAGCUACAGAAAUGUAGAUGACGAGGAGGAGGUUUAUCGAAUUUUCGGCGGAUGCCUCUAAA it was 0.0164 ± 0.0034 s⁻¹; in that of AUAAAAGCGCCAGAACUACAGAAAUGUAGUUCACGAGGAGCACGUUUAUCGAAUUUUCGGAGGAUGCCUCCAAA, below 1e-05 s⁻¹. Same read-out and setting: in the case of AUAAAAGCGCCAGAACUACAGAAAUGUAGUUGACGAGGGUGAGGUUUAUCGAAUUAUCGGCGGAUGCCUCCAAA it was 0.000452 ± 0.00011 s⁻¹; in that of AUAAAAGCACCAGAGCUACAGAAAUGUAGUUGAGGAGGAGGAGGUUUAUCGAAUCUUCGGCGGAUGCCUCGAAA, below 1e-05 s⁻¹. Regarding AUAAAAGCGCCAGAACUACAGAAAUGUAGUUGACGAGGAGGUGGUUUAUCGAAUUUUCUGCGGAUGCCUGCAAA, the “self-cleavage kobs at 2500 uM GlcN6P” value was below 1e-05 s⁻¹. As for AUAAAAGCGCCAGAACUACAGAAAUGUACUUGACGAGGAGGAGGUUUAUCGAAUUUUCAGCGGAUCCCUCCAAA, the “self-cleavage kobs at 2500 uM GlcN6P” value was below 1e-05 s⁻¹. The same measure, in the same setting: the figure for AUAAAAGCGCCGGAACUACAGAAAUGUAGUAGACGAGCAUAAGGUUUAUCGAAUUUUAGGCGGAUGCCUCCAAA is below 1e-05 s⁻¹.

The variants in another data set derive from B1. Put plainly: self-cleavage kobs at 10000 uM GlcN6P; higher = faster cleavage; RNA array. Conditions: with glucosamine-6-phosphate. In short, it runs like this: as §1
Regarding AUAAAAGCGCCAGAACUACAGAAAUGUAGUUGCCGAGGAGGAGGUUUAUCGAGUGUUCGGCGGAUGCCUCCAAA, the “self-cleavage kobs at 10000 uM GlcN6P” value is 0.000163 ± 2.9e-05 s⁻¹.

For AUAAAAGCGCCAGAACUACAGAAAUGUAGUUGACGAGGGUGAGGUUUAUCGAAUUAUCGGCGGAUGCCUCCAAA, the “self-cleavage kobs at 10000 uM GlcN6P” value was found to be 0.00056 ± 0.00013 s⁻¹.
